{
  "source": "paper PMC10348767",
  "about": "(2023)",
  "parents": {"B1": {"name": "GST-hnRNPH2 PY-NLS WT (aa 169–225) [human] / karyopherin β2 (Kapβ2) [not stated] (parent complex)", "chain 1": "LKKHKERIGHRYIEIFKSSRAEVRTHYDPPRKLMAMQRPGPYDRPGAGRGYNSIGRG", "chain 2": "MVWDRQTKMEYEWKPDEQGLQQILQLLKESQSPDTTIQRTVQQKLEQLNQYPDFNNYLIFVLTKLKSEDEPTRSLSGLILKNNVKAHFQNFPNGVTDFIKSECLNNIGDSSPLIRATVGILITTIASKGELQNWPDLLPKLCSLLDSEDYNTCEGAFGALQKICEDSAEILDSDVLDRPLNIMIPKFLQFFKHSSPKIRSHAVACVNQFIISRTQALMLHIDSFIENLFALAGDEEPEVRKNVCRALVMLLEVRMDRLLPHMHNIVEYMLQRTQDQDENVALEACEFWLTLAEQPICKDVLVRHLPKLIPVLVNGMKYSDIDIILLKGDVEEDETIPDSEQDIRPRFHRSRTVAQQHDEDGIEEEDDDDDEIDDDDTISDWNLRKCSAAALDVLANVYRDELLPHILPLLKELLFHHEWVVKESGILVLGAIAEGCMQGMIPYLPELIPHLIQCLSDKKALVRSITCWTLSRYAHWVVSQPPDTYLKPLMTELLKRILDSNKRVQEAACSAFATLEEEACTELVPYLAYILDTLVFAFSKYQHKNLLILYDAIGTLADSVGHHLNKPEYIQMLMPPLIQKWNMLKDEDKDLFPLLECLSSVATALQSGFLPYCEPVYQRCVNLVQKTLAQAMLNNAQPDQYEAPDKDFMIVALDLLSGLAEGLGGNIEQLVARSNILTLMYQCMQDKMPEVRQSSFALLGDLTKACFQHVKPCIADFMPILGTNLNPEFISVCNNATWAIGEISIQMGIEMQPYIPMVLHQLVEIINRPNTPKTLLENTAITIGRLGYVCPQEVAPMLQQFIRPWCTSLRNIRDNEEKDSAFRGICTMISVNPSGVIQDFIFFCDAVASWINPKDDLRDMFCKILHGFKNQVGDENWRRFSDQFPLPLKERLAAFYGV"}, "B2": {"name": "FLAG-hnRNPH2 WT, full length [human] / Kapβ2 in HEK293T cells [human (endogenous in HEK293T)] (parent complex)", "chain 1": "MMLSTEGREGFVVKVRGLPWSCSADEVMRFFSDCKIQNGTSGIRFIYTREGRPSGEAFVELESEEEVKLALKKDRETMGHRYVEVFKSNSVEMDWVLKHTGPNSPDTANDGFVRLRGLPFGCSKEEIVQFFSGLEIVPNGMTLPVDFQGRSTGEAFVQFASQEIAEKALKKHKERIGHRYIEIFKSSRAEVRTHYDPPRKLMAMQRPGPYDRPGAGRGYNSIGRGAGFERMRRGAYGGGYGGYDDYGGYNDGYGFGSDRFGRDLNYCFSGMSDHRYGDGGSSFQSTTGHCVHMRGLPYRATENDIYNFFSPLNPMRVHIEIGPDGRVTGEADVEFATHEDAVAAMAKDKANMQHRYVELFLNSTAGTSGGAYDHSYVELFLNSTAGASGGAYGSQMMGGMGLSNQSSYGGPASQQLSGGYGGGYGGQSSMSGYDQVLQENSSDYQSNLA", "chain 2": "B1 chain 2"}},
  "data": [
    {"variants_of": "B1", "assay": "GST pulldown, Coomassie Blue band intensity; parent: 86; read off a plot", "units": {"response": "%"}, "values": [
      {"variant": "chain 1 P41L", "response": "~28"},
      {"variant": "chain 1 R38W", "response": "~42"}
    ]},
    {"variants_of": "B2", "assay": "co-immunoprecipitation (anti-FLAG IP, immunoblot densitometry); HEK293T cells transfected with FLAG-hnRNPH2 constructs; parent: 100; read off a plot", "units": {"percent of parent": "%"}, "values": [
      {"variant": "chain 1 P209L", "percent of parent": "~20"},
      {"variant": "chain 1 Y210C", "percent of parent": "~25"},
      {"variant": "chain 1 R206Q", "percent of parent": "~25"},
      {"variant": "chain 1 R206G", "percent of parent": "~26"},
      {"variant": "chain 1 R206W", "percent of parent": "~48"}
    ]}
  ]
}
